The labels stand for the following.
B1: 6xHis-Strep-TEV-GFP-NBR1 (natural protein, human, UniProt Q14596 1-966, looked up)
chain: MEPQVTLNVTFKNEIQSFLVSDPENTTWADIEAMVKVSFDLNTIQIKYLDEENEEVSINSQGEYEEALKMAVKQGNQLQMQVHEGHHVVDEAPPPVVGAKRLAARAGKKPLAHYSSLVRVLGSDMKTPEDPAVQSFPLVPCDTDQPQDKPPDWFTSYLETFREQVVNETVEKLEQKLHEKLVLQNPSLGSCPSEVSMPTSEETLFLPENQFSWHIACNNCQRRIVGVRYQCSLCPSYNICEDCEAGPYGHDTNHVLLKLRRPVVGSSEPFCHSKYSTPRLPAALEQVRLQKQVDKNFLKAEKQRLRAEKKQRKAEVKELKKQLKLHRKIHLWNSIHGLQSPKSPLGRPESLLQSNTLMLPLQPCTSVMPMLSAAFVDENLPDGTHLQPGTKFIKHWRMKNTGNVKWSADTKLKFMWGNLTLASTEKKDVLVPCLKAGHVGVVSVEFIAPALEGTYTSHWRLSHKGQQFGPRVWCSIIVDPFPSEESPDNIEKGMISSSKTDDLTCQQEETFLLAKEERQLGEVTEQTEGTAACIPQKAKNVASERELYIPSVDLLTAQDLLSFELLDINIVQELERVPHNTPVDVTPCMSPLPHDSPLIEKPGLGQIEEENEGAGFKALPDSMVSVKRKAENIASVEEAEEDLSGTQFVCETVIRSLTLDAAPDHNPPCRQKSLQMTFALPEGPLGNEKEEIIHIAEEEAVMEEEEDEEDEEEEDELKDEVQSQSSASSEDYIIILPECFDTSRPLGDSMYSSALSQPGLERGAEGKPGVEAGQEPAEAGERLPGGENQPQEHSISDILTTSQTLETVPLIPEVVELPPSLPRSSPCVHHHGSPGVDLPVTIPEVSSVPDQIRGEPRGSSGLVNSRQKSYDHSRHHHGSSIAGGLVKGALSVAASAYKALFAGPPVTAQPIISEDQTAALMAHLFEMGFCDRQLNLRLLKKHNYNILQVVTELLQLNNNDWYSQRY
notes: NBR1, human, ORF amplified from HeLa cells cDNA; called full-length NBR1 in the results; Tag ends are read from the construct's name; a TEV site lies between Strep and GFP, cleavage is not mentioned; also called GFP-NBR1 WT; full-length NBR1; source: Sf9, purified (HisTrap, SEC on Superose 6); not shown: GFP, N-terminal, kept

Holding throughout (assay): pull-down; microscopy-based protein-protein interaction assay: GST-tagged bait saturated on Glutathione Sepharose 4B beads, fluorescent prey at 2 µM, 25 mM HEPES pH 7.5, 150 mM NaCl, 1 mM DTT, 30 min-1 h at room temperature, beads imaged at the equilibrium by confocal microscopy
What all share (conditions): both partners purified

The target in one experiment is T1, GST-FIP200 (UniProt Q8TDY2 1-1594).
T1 construct: FIP200, insect codon-optimized gene purchased from GenScript; The tag's end is read from the construct's name; In the functional rows on condensates the protein added was FIP200-GFP (GST cleaved off GST-FIP200-GFP with 3C protease); source: Sf9, purified (Glutathione Sepharose 4B, SEC on Superose 6 Increase); not shown: GST, N-terminal, kept

The target of experiment [1] is T2, GST fused to four M1-linked ubiquitin moieties (GST-4xUb) (UniProt P0CG48 1-76; P0CG48 1-76; P0CG48 1-76; P0CG48 1-76).
T2 construct: ubiquitin, first of four M1-linked (head-to-tail) moieties; ubiquitin, second of four M1-linked (head-to-tail) moieties; ubiquitin, third of four M1-linked (head-to-tail) moieties; ubiquitin, fourth of four M1-linked (head-to-tail) moieties; The tag's end is read from the construct's name; not shown: GST, N-terminal, kept

In the experiment “6xHis-Strep-TEV-GFP-NBR1” the target is B1.

T2 sequence (P0CG48 1-304, one chain of several): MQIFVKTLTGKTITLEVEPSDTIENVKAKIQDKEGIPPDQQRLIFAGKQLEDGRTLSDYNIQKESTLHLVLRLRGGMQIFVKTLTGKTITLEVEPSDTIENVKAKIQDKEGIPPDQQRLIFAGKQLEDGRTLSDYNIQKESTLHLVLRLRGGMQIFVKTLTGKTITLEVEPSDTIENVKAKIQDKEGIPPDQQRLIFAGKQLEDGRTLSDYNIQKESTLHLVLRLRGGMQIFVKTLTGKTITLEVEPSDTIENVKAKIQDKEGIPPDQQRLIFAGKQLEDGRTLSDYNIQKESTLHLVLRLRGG

As to B1, the binding result (with GST-FIP200; in experiment [1]) was “binds” in each case.

B2: GST-FIP200 Claw (aa 1494-1594) (domain or fragment, UniProt Q8TDY2 1494-1594, looked up)
chain: EKIAIRDFQVGDLVLIILDERHDNYVLFTVSPTLYFLHSESLPALDLKPGEGASGASRRPWVLGKVMEKEYCQAKKAQNRFKVPLGTKFYRVKAVSWNKKV
notes: FIP200 Claw domain, aa 1494-1594; The tag's end is read from the construct's name; also called Claw domain of FIP200; source: expressed and purified as the GST-FIP200 CTR construct (previously described); not shown: GST, N-terminal, kept
Take B2: in the experiment with 6xHis-Strep-TEV-GFP-NBR1, the binding result is on record as “binds”.

The record behind these values is article PMC8410870, “Reconstitution defines the roles of p62, NBR1 and TAX1BP1 in ubiquitin condensate formation and autophagy initiation” (Nature Communications, 2021).
